Consider 2 molecules from paper PMC3215855 (Developmental cell, 2011).

In the assay the target is T1, LRP6(3-4) (human, UniProt O75581 630-1246, N-linked carbohydrate at five predicted sites).
T1 sequence: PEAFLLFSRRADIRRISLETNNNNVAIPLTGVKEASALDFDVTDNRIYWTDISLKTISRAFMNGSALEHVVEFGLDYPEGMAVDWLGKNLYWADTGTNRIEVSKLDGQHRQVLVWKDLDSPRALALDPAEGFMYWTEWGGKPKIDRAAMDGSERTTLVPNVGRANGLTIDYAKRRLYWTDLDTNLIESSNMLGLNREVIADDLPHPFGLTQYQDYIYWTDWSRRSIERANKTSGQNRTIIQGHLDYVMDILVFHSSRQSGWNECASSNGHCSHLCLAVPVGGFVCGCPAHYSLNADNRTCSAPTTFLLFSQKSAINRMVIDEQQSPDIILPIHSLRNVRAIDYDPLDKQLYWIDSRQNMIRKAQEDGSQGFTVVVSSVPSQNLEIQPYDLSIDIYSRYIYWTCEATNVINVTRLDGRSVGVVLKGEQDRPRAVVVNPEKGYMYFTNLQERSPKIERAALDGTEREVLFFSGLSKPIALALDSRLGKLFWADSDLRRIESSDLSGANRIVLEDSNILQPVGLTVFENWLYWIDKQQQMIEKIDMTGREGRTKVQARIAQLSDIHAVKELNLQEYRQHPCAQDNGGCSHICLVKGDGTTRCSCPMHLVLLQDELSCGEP
Put plainly: ITC.

B1: full-length Dkk1 (ligand, human, UniProt O94907 32-266, looked up)
chain: TLNSVLNSNAIKNLPPPLGGAAGHPGSAVSAAPGILYPGGNKYQTIDNYQPYPCAEDEECGTDEYCASPTRGGDAGVQICLACRKRRKRCMRHAMCCPGNYCKNGICVSSDQNHFRGEIEETITESFGNDHSTLDGYSRRTTLSSKMYHTKGQEGSVCLRSSDCASGLCCARHFWSKICKPVLKEGQVCTKHRRKGSHGLEIFQRCYCGEGLSCRIQKDHHQASNSSRLHTCQRH
modifications: one N-linked carbohydrate site
Regarding B1, the Kd was 67 nM.

B2: Dkk1_C (domain or fragment, human, UniProt O94907 178-266, looked up)
chain: MYHTKGQEGSVCLRSSDCASGLCCARHFWSKICKPVLKEGQVCTKHRRKGSHGLEIFQRCYCGEGLSCRIQKDHHQASNSSRLHTCQRH
Take B2: the “stoichiometry N” value was 1.
